Experimental data taken from patent publication US20120034651.

Legend:
[1] = system: T1, peptide having repetitive sequence of 11-23 from 10-24 (NH2-VTDHPDRLWAWEK-RRR-VTDHPDRLWAWEK-COOH)
T1 sequence: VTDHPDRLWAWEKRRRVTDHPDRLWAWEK

[2] = system: T2, 10/24 peptide (amino acid residue 10-24 of human TCL1, NH2-AVTDHPDRLWAWEKF-COOH)
T2 sequence: AVTDHPDRLWAWEKF

[3] = target: D16G TCL1 (UniProt P56279)
Sequence of D16G TCL1 (P56279 whole entry D16G): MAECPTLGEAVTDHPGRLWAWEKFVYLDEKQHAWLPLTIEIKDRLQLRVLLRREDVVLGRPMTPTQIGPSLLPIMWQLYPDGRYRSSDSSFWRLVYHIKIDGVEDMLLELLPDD

Substance	In vitro Akt kinase assay, GSK phosphorylation [1]	In vitro Akt kinase assay, GSK phosphorylation by western blotting, peptide at 200 µM [2]	Akt kinase activity in an in vitro kinase assay (GSK-3a phosphorylation, Akt Ser-473 phosphorylation) [3]
Recombinant Akt protein extracted from mammalian cells	The similar inhibition effect on Akt kinase activity was also identified	the 10/24 peptide was effectively inhibited the phosphorylation potency for GSK peptide of Akt	
Akt (in vitro kinase assay of Example 1)			D16G TCL1 did not affect the Akt kinase activity even though in a dose escalation experiment
